These are literature values, as cited in paper PMC3166722.

Where two headings read alike, the source gives them in different places.

For series [1], the target named is CaM (Homo sapiens) (UniProt P0DP23).
Series [2] shares this target. As to the kind of experiment: resonant mirror detection (IAsys).
In series [3] the target is GPC (trypsinized IOVs) (Homo sapiens) (UniProt P04921). Put plainly: IOV binding, Scatchard analysis.
Chain of GPC (trypsinized IOVs) (Homo sapiens) (P04921 whole entry): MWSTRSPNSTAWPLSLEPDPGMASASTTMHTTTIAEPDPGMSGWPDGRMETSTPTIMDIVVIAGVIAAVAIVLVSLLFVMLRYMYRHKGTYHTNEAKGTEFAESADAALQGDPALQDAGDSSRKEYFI

Chain of 4.1R80 (P11171 whole entry): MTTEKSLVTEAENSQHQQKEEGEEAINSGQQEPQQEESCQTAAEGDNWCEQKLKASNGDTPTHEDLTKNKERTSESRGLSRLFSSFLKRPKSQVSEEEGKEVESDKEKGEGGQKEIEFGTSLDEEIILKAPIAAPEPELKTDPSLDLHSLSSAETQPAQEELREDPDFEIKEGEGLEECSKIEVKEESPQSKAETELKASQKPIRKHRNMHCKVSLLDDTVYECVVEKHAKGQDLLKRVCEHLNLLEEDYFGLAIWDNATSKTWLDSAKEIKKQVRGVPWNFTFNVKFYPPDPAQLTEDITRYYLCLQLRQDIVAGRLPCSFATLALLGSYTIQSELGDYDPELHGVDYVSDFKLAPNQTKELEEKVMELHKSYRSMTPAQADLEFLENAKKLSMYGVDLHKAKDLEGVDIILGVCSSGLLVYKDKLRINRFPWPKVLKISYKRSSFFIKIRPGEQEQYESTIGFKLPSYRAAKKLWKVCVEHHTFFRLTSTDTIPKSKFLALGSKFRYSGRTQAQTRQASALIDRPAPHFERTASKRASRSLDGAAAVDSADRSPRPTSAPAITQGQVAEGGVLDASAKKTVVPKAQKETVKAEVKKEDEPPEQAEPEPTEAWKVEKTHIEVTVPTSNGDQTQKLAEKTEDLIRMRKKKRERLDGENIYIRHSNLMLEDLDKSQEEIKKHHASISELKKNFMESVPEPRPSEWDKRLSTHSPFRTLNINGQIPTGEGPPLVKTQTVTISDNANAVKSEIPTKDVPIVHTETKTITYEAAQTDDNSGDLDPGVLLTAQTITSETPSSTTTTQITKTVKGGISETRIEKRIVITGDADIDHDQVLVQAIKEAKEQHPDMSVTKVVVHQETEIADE
Chain of 4.1R135 (P11171 whole entry): as above

What is called Kd is the equilibrium constant for the complex coming apart. Regarding 4.1G (from UniProt O43491), in the series with CaM (Homo sapiens) [1], the dissociation constant (Kd) is 10 nM.
As to 4.1R135 (from UniProt P11171), the values for the Kd (with CaM (Homo sapiens) [2]; in series [3]) were 51 nM and 2000 nM, respectively.
With 4.1R80 (from UniProt P11171), the Kd in series [3] is 76 nM.
